# T1: EutV (Enterococcus faecalis, UniProt A0A1Q1FU69 1-190)
# T1 sequence: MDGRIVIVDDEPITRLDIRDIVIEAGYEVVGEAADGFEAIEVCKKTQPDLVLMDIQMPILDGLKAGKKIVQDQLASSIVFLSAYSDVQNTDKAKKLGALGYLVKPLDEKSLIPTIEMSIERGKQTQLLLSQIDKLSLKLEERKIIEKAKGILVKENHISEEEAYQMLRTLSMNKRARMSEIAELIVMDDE
# Experiments:
# EutV [1] = target: T1, EutV; assay: SPR; details: SPR: 10 mM HEPES pH 7, 150 mM NaCl, 0.05% Tween-20, 2.5 mM MgCl2, 4 C; EMSA: 25 mM HEPES pH 7.5, 150 mM NaCl, 10 mM MgCl2, 4 C, 25 nM RNA
# EutV Y164A = EutV Y164A (Enterococcus faecalis, UniProt A0A1Q1FU69 1-190, Y164A); assay: SPR; 2.5 mM MgCl2; SPR: 10 mM HEPES pH 7, 150 mM NaCl, 0.05% Tween-20, 2.5 mM MgCl2, 4 C; EMSA: 25 mM HEPES pH 7.5, 150 mM NaCl, 10 mM MgCl2, 4 C, 25 nM RNA; details: protein: recombinant; chain copies: 2; label: 3' biotin-TEG; two hairpins with hexaloops P1 and P2
# EutV R142A = EutV R142A (Enterococcus faecalis, UniProt A0A1Q1FU69 1-190, R142A); assay: as above; details: protein: recombinant; chain copies: 2; label: 3' biotin-TEG; two hairpins with hexaloops P1 and P2
# EutV E160A = EutV E160A (Enterococcus faecalis, UniProt A0A1Q1FU69 1-190, E160A); assay: as above; details: protein: recombinant; chain copies: 2; label: 3' biotin-TEG; two hairpins with hexaloops P1 and P2
# EutV K143A/K147A = EutV K143A/K147A (Enterococcus faecalis, UniProt A0A1Q1FU69 1-190, K143A;K147A); assay: as above; details: protein: recombinant; chain copies: 2; label: 3' biotin-TEG; two hairpins with hexaloops P1 and P2
# EutV M172A = EutV M172A (Enterococcus faecalis, UniProt A0A1Q1FU69 1-190, M172A); assay: as above; details: protein: recombinant; chain copies: 2; label: 3' biotin-TEG; two hairpins with hexaloops P1 and P2
# EutV N173A/R175A/R177A = EutV N173A/R175A/R177A (Enterococcus faecalis, UniProt A0A1Q1FU69 1-190, N173A;R175A;R177A); assay: as above; details: protein: recombinant; chain copies: 2; label: 3' biotin-TEG; two hairpins with hexaloops P1 and P2
# EutV [2] = target: T1, EutV; assay: SPR; CAPture chip, 2.5 mM MgCl2, n=8; SPR: 10 mM HEPES pH 7, 150 mM NaCl, 0.05% Tween-20, 2.5 mM MgCl2, 4 C; EMSA: 25 mM HEPES pH 7.5, 150 mM NaCl, 10 mM MgCl2, 4 C, 25 nM RNA; details: protein: recombinant; tags: none (His-tag cleaved by TEV); chain copies: 2; label: 3' biotin-TEG; two hairpins with hexaloops P1 and P2
# EutV [3] = target: T1, EutV; assay: SPR; unphosphorylated, CM5 streptavidin chip, n=6; SPR: 10 mM HEPES pH 7, 150 mM NaCl, 0.05% Tween-20, 2.5 mM MgCl2, 4 C; EMSA: 25 mM HEPES pH 7.5, 150 mM NaCl, 10 mM MgCl2, 4 C, 25 nM RNA; details: protein: recombinant; tags: none (His-tag cleaved by TEV); chain copies: 2; label: 3' biotin-TEG; two hairpins with hexaloops P1 and P2
Molecule,Kd (EutV [1]) [µM],binding signal (EutV Y164A),binding signal (EutV R142A),binding signal (EutV E160A),binding signal (EutV K143A/K147A),binding result (EutV M172A),binding result (EutV N173A/R175A/R177A),Kd (EutV [2]) [µM],Kd (EutV [3]) [µM]
P1 hairpin,6,–,–,–,–,–,–,–,–
P2 hairpin,3.1,–,–,–,–,–,–,–,–
"EutP RNA, 3' biotin (structured_RNA) RNA: AGAAUCAGAAACACAAUGGCGUGUUUUAACAAAUCGGCAAAGGAGCCCAAG",–,55 fold reduction in affinity vs WT,8 fold reduction in affinity vs WT,60 fold reduction in affinity vs WT,5 fold reduction in affinity vs WT,no binding,no binding,3.8 ± 2.1,2.2 ± 0.2

# — article PMC8934654, “Structural characterization of the ANTAR antiterminator domain bound to RNA”
